Source: patent publication US20190262327A1, “COMBINATION OF A BACE INHIBITOR AND AN ANTIBODY OR ANTIGEN-BINDING FRAGMENT FOR THE TREATMENT OF A DISORDER ASSOCIATED WITH THE ACCUMULATION OF AMYLOID BETA” (ASTRAZENECA AB, priority 2016, published 2019)

What was measured:
[1] = biological target: T1, human Amyloid beta 1-42 peptide (Homo sapiens, UniProt P05067); test: Surface Plasmon Resonance kinetic profiling of purified scFv (ProteOn); assay type: binding; settings: biotinylated human Amyloid beta 1-42 on streptavidin chip
T1 construct: biotinylated human Amyloid beta 1-42 peptide (rpeptide, USA; cat: A1117); purchased rPeptide, USA A1117; host or cells: synthetic peptide
From the text: Surface Plasmon Resonance was used to analyse the purified scFv clones that had shown significant improvement in binding affinity for human Amyloid beta 1-42 peptide over the parent sequence, Abet0144-GL, in the HTRF™ epitope competition assay (sections 1.3-1.6). Briefly, the ProteOn Protein Interaction Array System (BioRad, USA) was used to assess the kinetic parameters of the interaction between each purified scFv and synthetically produced human Amyloid beta 1-42 peptide. These experiments were performed essentially as described by Karlsson et al. (Karlsson et al., 1991).
The affinity of binding between each test scFv and human Amyloid beta 1-42 was estimated using assays in which biotinylated synthetic human Amyloid beta 1-42 peptide (rPeptide, USA; cat: Al 117) was non-covalently bound via a biotin/streptavidin interaction to a proprietary streptavidin chip (NTA 176-5021) at five different surface densities. The chip surface was regenerated between cycles by a single 60 second injection of 10 mM Glycine pH 2.0 to remove scFv bound to the peptide.
Each scFv at 100-200 nM was sequentially passed over the peptide surface for a sufficient amount of time to observe sensorgrams that could be fitted to an appropriate binding model with confidence. An irrelevant scFv blank was subtracted from the main dataset to reduce the impact of any buffer artefacts or non-specific binding effects. An appropriate binding model was then fitted to the data.

[2] = biological target: T1, human Amyloid beta 1-42 peptide; test: Abet0144-GL HTRF epitope competition assay; assay type: binding; settings: purified competitor scFv; inhibition of human Amyloid beta 1-42 : Abet0144-GL IgG1-TM complex
Protocol: Two thousand and twenty four scFv chosen at random from selection rounds 3 and 4 of the targeted mutagenesis approach described in section 1.2 were expressed in bacteria to produce unpurified periplasmic scFv. Those scFv capable of binding synthetic human amyloid beta 1-42 peptide via the same epitope as Abet0144-GL IgG1-TM were elucidated in a competition format assay, using the HTRF™ platform. Specifically, fluorescence resonance energy transfer (FRET) was measured between streptavidin cryptate (associated with biotinylated amyloid beta 1-42 peptide) and anti-human Fc XL665 (associated with Abet0144-GL IgG1-TM) in the presence of a single concentration of each unpurified periplasmic test scFv.
A ‘Total’ binding signal was determined by analysing the binding of Abet0144-GL IgG1-TM to synthetic human Amyloid beta 1-42 peptide in the absence of competitor peptide. The ‘Sample’ signals were derived from analysing the binding of Abet0144-GL IgG1-TM to synthetic human Amyloid beta 1-42 peptide in the presence of a test scFv sample. Finally, a ‘Cryptate Blank’ signal was determined by analysing the fluorescence mediated by the detection reagent cocktail alone.
Unpurified periplasmic scFv were supplied in sample buffer consisting of 50 mM MOPS, pH 7.4, 0.5 mM EDTA, and 0.5 M sucrose. […] Assay plates were sealed and then incubated for 3 hours at room temperature in the dark, prior to measuring time-resolved fluorescence at 620 and 665 nm emission wavelengths on a fluorescence plate reader.
Data were analysed by calculating % Delta F values for each sample. % Delta F was determined according to equation 1. […]
Data were again analysed by calculating the % Delta F and % Total binding values for each sample. In addition, a % Inhibition value for each concentration of purified scFv was also calculated as described in Equation 3: […]

T1 sequence (P05067 672-713): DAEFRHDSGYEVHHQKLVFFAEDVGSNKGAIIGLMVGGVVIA

B1: Abet0380: optimized anti-Aβ1-42 clone derived from Abet0144-GL, non-germlined (protein)
scFv (part 1 of 2): EVQLLESGGGLVQPGGSLRLSCAASMGNFNYQTMWWVRQAPGRGLEWVSVIGKTNENIAYADSVKGRFTISRDNSKNTLYLQMNSLRAEDTAVYYCAREWMDHSRPYYYYGMDVWGQGTLVTVSS
scFv (part 2 of 2): SYELTQPPSVSVSPGQTASITCSGHNLEDKFASWYQQKPGQSPVLVIYRDDKRPSGIPERFSASNSGHTATLTISGTQATDEADYYCSSQDTVTRVFGGGTKLTVL
modifications: left off: small tags and cut ends
notes: optimized anti-Aβ1-42 clone derived from Abet0144-GL, non-germlined
ka [1]: 193000 M⁻¹ s⁻¹ | kd [1]: 2.85e-05 s⁻¹ | ka ([1]; listed as Abet0380 scFv): 193000 M⁻¹ s⁻¹ | kd ([1]; listed as Abet0380 scFv): 2.85e-05 s⁻¹ | potency over the parent Abet0144-GL scFv sequence (FIG. 1) [2]: significant improvement in potency

B2: Abet0378: optimized anti-Aβ1-42 clone; amber stop codon at VL position 91 read as glutamine (protein)
scFv (part 1 of 2): EVQLLESGGGLVQPGGSLRLSCAASGFPFETDIMWWVRQAPGKGLEWVSVIGTNTDNVAYADSVKGRFTISRDNSKNTLYLQMNSLRAEDTAVYYCAREWMDHSRPYYYYGMDVWGQGTLVTVSS
scFv (part 2 of 2): SYELTQPPSVSVSPGQTASITCSGHNLEDKFASWYQQKPGQSPVLVIYRDDKRPSGIPERFSASNSGHTATLTISGTQATDEADYYCSSQDTVTRVFGGGTKLTVL
modifications: left off: small tags and cut ends
notes: optimized anti-Aβ1-42 clone; amber stop codon at VL position 91 read as glutamine
ka [1]: 136000 M⁻¹ s⁻¹ | kd [1]: 6.41e-05 s⁻¹

B3: Abet0383: optimized anti-Aβ1-42 clone derived from Abet0144-GL (protein)
scFv (part 1 of 2): EVQLLESGGGLVQPGGSLKLSCAASGFTFDWYPMWWVRQAPGKRLEWISVIGADNAKIAYADSVKGRFTISRDNSKNTLYLQMNSLRAEDTAVYYCAREWMGHSRPYYYYGMDVWGQGTPVTVSS
scFv (part 2 of 2): SYELTQPPSVSVSPGQTASITCSGHNLGDKFASWYQQKPGQSPVLVIYRDDKRPSGIPERFSASNSGHTATLTISGTQATDEADYYCSSQDTVTRVFGGGTKLTVL
modifications: left off: small tags and cut ends
notes: optimized anti-Aβ1-42 clone derived from Abet0144-GL
ka [1]: 181000 M⁻¹ s⁻¹ | kd [1]: 3.94e-05 s⁻¹

B4: Abet0377: optimized anti-Aβ1-42 clone from quaternary library (protein)
scFv (part 1 of 2): EVQLLESGGGLVQPGGSLRLSCAASGFNFNEQTLWWVRQAPGKGLEWVSVIGVGTKNIAYADTVKGRFTISRDNSKNTLYLQMNSLRAEDTAVYYCAREWMDHSRPYYYYGMDVWGQGTLVTVSS
scFv (part 2 of 2): SYELTQPPSVSVSPGQTASITCSGHNTEHKWISWYQQKPGQSPVLVIYRDDKRPSGIPERFSATNSGHTATLTISGTQATDEADYYCSSQDTVTRVFGGGTKLTVL
modifications: left off: small tags and cut ends
notes: optimized anti-Aβ1-42 clone from quaternary library
ka [1]: 196000 M⁻¹ s⁻¹ | kd [1]: 3.02e-05 s⁻¹ | potency over the parent Abet0144-GL scFv sequence (FIG. 1) [2]: significant improvement in potency

B5: Abet0379: optimized anti-Aβ1-42 clone derived from Abet0144-GL (protein)
scFv (part 1 of 2): EVQLLESGGGLVQPGGSLRLSCAASGFDFAETPLWWVRQAPGERLEWVSVIGSNQNKTAYADSVKGRFTISRDNSKDTLYLQMNSLRAEDTAVYYCAREWMDHSRPYYYYGMDVWGQGTLVTVSS
scFv (part 2 of 2): QSVLTQPPSVSVSPGQTASITCSGHNLEDKFASWYQQKSGQSPVLVIYRDDKRPSGIPERFSASNSGHTATLTISGTQATDGADYYCATQDNFTRVFGGGTKLTVL
modifications: left off: small tags and cut ends
notes: as for B3
ka [1]: 134000 M⁻¹ s⁻¹ | kd [1]: 4.39e-05 s⁻¹

B6: Abet0381: optimized anti-Aβ1-42 clone derived from Abet0144-GL (protein)
scFv (part 1 of 2): EVQLLESGGGLVQPGGSLRLSCAASSPSFPRETMWWVRQAPGKGLEWVSVIGTQPNRLTYADSVKGRFTISRDNSKNTLYLQMNSLRAEDTAVYYCAREWMDHSRPYYYYGIDVWGQGTLVTVSP
scFv (part 2 of 2): SYELTQPPSVSASPGQTASITCSGHNLEDKFVSWYQQKPGQSPVLVIYRDDKRPSGIPERFSASNSGHTATLTISGTQATDEANYYCSSQDTVTRAFGGGTKLTVL
modifications: left off: small tags and cut ends
notes: as for B3
ka [1]: 213000 M⁻¹ s⁻¹ | kd [1]: 5.14e-05 s⁻¹

B7: Abet0321b: optimized anti-Aβ1-42 clone derived from Abet0144-GL (protein)
scFv (part 1 of 2): EVQLLESGGGLVQPGGSLRLSCAASAYHSNHDPMWWVRQAPGKGLEWVSVIGSSGGTTAYADSVKGRFTISRDNSKNTLYLQMNSLRAEDTAVYYCAREWMDHSRPYYYYGMDVWGQGTLVTVSS
scFv (part 2 of 2): SYELTQPPSVSVSPGQTASITCSGHNLEDKFASWYQQKPGQSPVLIIYRDDKRPSGIPERFSASNSGHTATLTISGTQATDEADYYCSSQDTVTRVFGGGTKLTVL
modifications: left off: small tags and cut ends
notes: as for B3
ka [1]: 150000 M⁻¹ s⁻¹ | kd [1]: 3.33e-05 s⁻¹

B8: Abet0369: optimized anti-Aβ1-42 clone derived from Abet0144-GL (protein)
scFv (part 1 of 2): EVQLLESGGGLVQPGGSLRLSCAASSFQISKNTMWWVRRAPGKGLEWVSVIGKDETRFNYADSVKGRFTISRDNSKNTLYLQMNSLRAEDTAVYYCAREWMDHSRPYYYYGMDVWGQGTLVTVSS
scFv (part 2 of 2): SYGLTQPPSVSVSPGQTASITCSGRNIGDSWVAWYQQKPGQSPVLVIYRDDKRPSGIPERFSASNSGHTATLTISGTQATDEADYYCSSQDTVTRVFGGGTKLTVL
modifications: left off: small tags and cut ends
notes: as for B3
ka [1]: 327000 M⁻¹ s⁻¹ | kd [1]: 4.34e-05 s⁻¹ | potency over the parent Abet0144-GL scFv sequence (FIG. 1) [2]: significant improvement in potency

B9: Abet0319: optimized anti-Aβ1-42 clone derived from Abet0144-GL (protein)
scFv (part 1 of 2): EVQLLESGGGLVQPGGSLRLSCAASVSVYNKDTMWWVRQAPGKGLEWVSVIGSSGGTTVYADSVKGRFTISRDNSKNTLYLQMNSLRAEDTAVYYCAREWMDHSRPYYYYGMDVWGQGTLVTVSS
scFv (part 2 of 2): SYELTQPPSVSVSPGQTASITCSGHNIMDKWVSWYQQKPGRSPALVIYRDDKRPSGIPERFSASNSGHTATLTISGTQATDEADYYCSSQDTVTRVFGGGTKLTVL
modifications: left off: small tags and cut ends
notes: as for B3
ka [1]: 329000 M⁻¹ s⁻¹ | kd [1]: 0.000129 s⁻¹
